{
  "source": "patent US20210087270A1",
  "key": {"[1]": {"target": "recombinant human KIR3DL2 protein (human) (UniProt P43630)", "assay": "SPR (Biacore), bivalent binding, N = 3"}, "[2]": {"target": "recombinant human KIR3DL2 protein (human) (UniProt P43630)", "assay": "SPR (Biacore), bivalent binding, N = 2"}, "[3]": {"target": "recombinant human KIR3DL2 protein (human) (UniProt P43630)", "assay": "SPR (Biacore), mean off-rate for bivalent binding converted to per hour"}, "[4]": {"target": "recombinant human KIR3DL2 protein (human) (UniProt P43630)", "assay": "SPR (Biacore), bivalent binding, N = 1"}, "[5]": {"target": "human KIR3DL2 (CD158k), wild type, at the cell surface (human) (UniProt P43630)", "sequence (P43630 22-455 E158D)": "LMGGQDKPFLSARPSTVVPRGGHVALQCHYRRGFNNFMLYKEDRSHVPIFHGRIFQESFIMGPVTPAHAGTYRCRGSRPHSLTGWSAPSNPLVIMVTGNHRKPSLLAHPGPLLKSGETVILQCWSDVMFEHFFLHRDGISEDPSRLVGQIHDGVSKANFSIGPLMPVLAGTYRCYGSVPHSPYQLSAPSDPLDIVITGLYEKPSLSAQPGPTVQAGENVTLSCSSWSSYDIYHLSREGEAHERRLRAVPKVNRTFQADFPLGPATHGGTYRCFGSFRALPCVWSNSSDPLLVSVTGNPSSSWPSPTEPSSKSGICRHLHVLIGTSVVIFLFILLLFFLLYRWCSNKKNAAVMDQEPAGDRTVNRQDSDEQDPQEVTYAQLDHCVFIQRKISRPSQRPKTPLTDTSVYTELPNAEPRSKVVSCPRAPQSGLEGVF", "assay": "PK/PD model parameter 'Binding affinity', set from the filing's flow cytometry titration of IPH4102 on KIR3DL2-positive cells (EC50 about 0.07 ug/mL); not a separate kinetic measurement"}, "[6]": {"target": "human KIR3DL2 (CD158k), wild type, at the cell surface (human) (UniProt P43630)", "assay": "flow cytometry, concentration-response binding of PE-labelled IPH4102 on HuT78 Sezary cell line"}, "[7]": {"target": "human KIR3DL2 (CD158k), wild type, at the cell surface (human) (UniProt P43630)", "assay": "flow cytometry, concentration-response binding of PE-labelled IPH4102 on COU-L Sezary cell line"}, "[8]": {"target": "human KIR3DL2 (CD158k), wild type, at the cell surface (human) (UniProt P43630)", "assay": "cell-based or functional assay"}, "[9]": {"target": "recombinant human KIR3DL2 protein (human) (UniProt P43630)", "assay": "SPR (Biacore), average bivalent binding affinity to recombinant KIR3DL2"}, "[10]": {"target": "recombinant human KIR3DL2 protein (human) (UniProt P43630)", "assay": "SPR (Biacore), bivalent binding, mean of three"}, "[11]": {"target": "human KIR3DL2 (CD158k), wild type, at the cell surface (human) (UniProt P43630)", "assay": "flow cytometry, concentration-response binding of PE-labelled IPH4102 on primary Sezary tumor cells"}},
  "data": [
    {"binder": "IPH4102 (humanized 2B12 mAb, full-length human IgG1 anti-KIR3DL2 antibody) (antibody, from a related filing, V domains shown) VH: QIQLVQSGSELKKPGASVKVSCKASGYTFTTAGMQWVRQAPGQGLEWIGWINSHSGVPKYAEDFKGRFVFSLDTSVSTAYLQISSLKAEDTAVYFCARGGDEGVMDYWGQGTTVTVSS VL: DIQMTQSPSFLSASVGDRVTITCKASQDVSTAVAWYQQKPGQPPKLLIYWTSTRHTGVPDRFSGSGSGTDYTLTISSLQAEDVAVYYCQQHYSTPWTFGGGTKVEIK", "values": [
      {"measurement": "Kd", "setting": "[1]", "value": 0.144, "unit": "nM"},
      {"measurement": "koff", "setting": "[1]", "value": 0.000139, "unit": "s⁻¹"},
      {"measurement": "kon", "setting": "[1]", "value": 965000, "unit": "M⁻¹ s⁻¹"},
      {"measurement": "Kd", "setting": "[2]", "value": 0.131, "unit": "nM"},
      {"measurement": "koff", "setting": "[2]", "value": 0.000125, "unit": "s⁻¹"},
      {"measurement": "kon", "setting": "[2]", "value": 953000, "unit": "M⁻¹ s⁻¹"},
      {"measurement": "koff", "setting": "[3]", "value": 0.00014, "unit": "s⁻¹"},
      {"measurement": "Kd", "setting": "[4]", "value": 0.162, "unit": "nM"},
      {"measurement": "koff", "setting": "[4]", "value": 0.000156, "unit": "s⁻¹"},
      {"measurement": "kon", "setting": "[4]", "value": 968000, "unit": "M⁻¹ s⁻¹"},
      {"measurement": "Kd", "setting": "[5]", "value": 0.07, "unit": "mg/L"},
      {"measurement": "EC50", "setting": "[6]", "value": 0.06, "unit": "mg/L"},
      {"measurement": "EC50", "setting": "[7]", "value": 0.087, "unit": "mg/L"},
      {"measurement": "EC50 in 51Cr-release assay HuT 78 tumor lysis by PBMC from healthy volunteers", "setting": "[8]", "value": 0.045, "unit": "mg/L"},
      {"measurement": "median EC10 in the 51Cr release assay (HuT78 tumor cell lysis by healthy donors' PBMC, NK cell lytic capacity)", "setting": "[8]", "value": 0.002, "unit": "mg/L"},
      {"measurement": "Kd", "setting": "[9]", "value": 0.0219, "unit": "mg/L"},
      {"measurement": "Kd", "setting": "[10]", "value": 0.146, "unit": "nM"},
      {"measurement": "koff", "setting": "[10]", "value": 0.00014, "unit": "s⁻¹"},
      {"measurement": "kon", "setting": "[10]", "value": 962000, "unit": "M⁻¹ s⁻¹"},
      {"measurement": "EC50", "setting": "[11]", "value": 0.07, "unit": "mg/L"}
    ]}
  ]
}
